Several values for one entry are separate records, joined by “and”; a condition that tells them apart may be missing. Identical values can stand only once.
Columns and labels:
[1] = biological target: tcSOD truncation mutant M202 (residues 1-201) (not stated (metagenomic library of hot springs in Tengchong, China)); experiment: cross-linking; glutaraldehyde, 20 mM sodium phosphate pH 7.4, after heating at 25°C or 80°C for 50 min, cross-linked 1 or 5 min; read by 12.5% SDS-PAGE
[2] = biological target: wild type tcSOD (hyperthermostable Fe-superoxide dismutase from Tengchong hot springs) (not stated (metagenomic library of hot springs in Tengchong, China)); experiment: as above
[3] = biological target: wild type tcSOD (hyperthermostable Fe-superoxide dismutase from Tengchong hot springs) (not stated (metagenomic library of hot springs in Tengchong, China)); experiment: native gel or EMSA; 10% native-PAGE (also 5-15% gradient native-PAGE), 20 mM PBS pH 7.4, 0.1-1.0 mg/ml (mutants 1 mg/ml); the predominant oligomer (quaternary structure)
[4] = biological target: wild type tcSOD (hyperthermostable Fe-superoxide dismutase from Tengchong hot springs) (not stated (metagenomic library of hot springs in Tengchong, China)); experiment: SEC; Superdex 200HR 10/30, 20 mM sodium phosphate pH 7.4, 25°C, 0.5 ml/min; protein 0.1 to 1.0 mg/ml, not cross-linked
[5] = biological target: wild type tcSOD (hyperthermostable Fe-superoxide dismutase from Tengchong hot springs) (not stated (metagenomic library of hot springs in Tengchong, China)); experiment: native gel or EMSA; tetramers and high-order oligomers separated by ion exchange (Resource Q), concentrated to 0.3 mg/ml, heated at 80°C or 95°C, then 10% native-PAGE; step: tetramers to octamers
[6] = biological target: wild type tcSOD (hyperthermostable Fe-superoxide dismutase from Tengchong hot springs) (not stated (metagenomic library of hot springs in Tengchong, China)); experiment: cross-linking; 0.5 mM DSP for 10 min after 50 min at the given temperature, without DTT; read by SDS-PAGE and native-PAGE
[7] = biological target: wild type tcSOD (hyperthermostable Fe-superoxide dismutase from Tengchong hot springs) (not stated (metagenomic library of hot springs in Tengchong, China)); experiment: native gel or EMSA; 10% native-PAGE (also 5-15% gradient), 20 mM PBS pH 7.4, 0.1-1.0 mg/ml (mutants 1 mg/ml), bands quantified by GIS software; step: tetramers to high-order oligomers; fractions almost unchanged with 0-5 M NaCl, pH 3-11 or 80°C for 60 min

tcSOD truncation mutant M202 (residues 1-201) (domain or fragment)
stoichiometry N [1]: 4 and 2

wild type tcSOD (hyperthermostable Fe-superoxide dismutase from Tengchong hot springs) (enzyme)
stoichiometry N [2]: 4 and 2 | stoichiometry N [3]: 4 | stoichiometry N [4]: 4 | stoichiometry N [5]: 8 | stoichiometry N [6]: 2 | fraction of high-order oligomers (at 0.1 mg/ml) [7]: 1.5% | fraction of high-order oligomers (at 1.0 mg/ml) [7]: 5% | stoichiometry N [7]: > 8
